Results reported in patent US20210162000A1 (INSTITUT DE CARDIOLOGIE DE MONTREAL, published 2021).

B1: Recombinant SEQ ID NO 6, GRP94 CBD-CT (aa 652-799), His6 tag purified from E. coli (other)
chain: YGWSGNMERIMKAQAYQTGKDISTNYYASQKKTFEINPRHPLIRDMLRRIKEDEDDKTVLDLAVVLFETATLRSGYLLPDTKAYGDRIERMLRLSLNIDPDAKVEEEPEEEPEETAEDTTEDTEQDEDEEMDVGTDEEEETAKESTAE
notes: also called NO; 43; GRP94 CDB-CT domain; not shown: His6 tag from pET24b(+)
B2: Secretable ~20 kDa HA-tagged protein containing the CBD and C-terminal domains of GRP94 (CBD-CT; SEQ ID NO 46) (other)
chain: YGWSGNMERIMKAQAYQTGKDISTNYYASQKKTFEINPRHPLIRDMLRRIKEDEDDKTVLDLAVVLFETATLRSGYLLPDTKAYGDRIERMLRLSLNIDPDAKVEEEPEEEPEETAEDTTEDTEQDEDEEMDVGTDEEEETAKESTAEYPYDVPDYA
B3: SEQ ID NO 64, alanine-scanning mutant of GRP94 lacking KDEL (taken as AA1) (other)
chain: DDEVDVDGTVEEDLGKSREGSRTDDEVVQREEEAIQLDGLNASQIRELREKSEKFAFQAEVNRMMKLIINSLYKNKEIFLRELISNASDALDKIRLISLTDENALSGNEELTVKIKCDKEKNLLHVTDTGVGMTREELVKNLGTIAKSGTSEFLNKMTEAQEDGQSTSELIGQFGVGFYSAFLVADKVIVTSKHNNDTQHIWESDSNEFSVIADPRGNTLGRGTTITLVLKEEASDYLELDTIKNLVKKYSQFINFPIYVWSSKTETVEEPMEEEEAAKEEKEESDDEAAVEEEEEEKKPKTKKVEKTVWDWELMNDIKPIWQRPSKEVEEDEYKAFYKSFSKESDDPMAYIHFTAEGEVTFKSILFVPTSAPRGLFDEYGSKKSDYIKLYVRRVFITDDFHDMMPKYLNFVKGVVDSDDLPLNVSRETLQQHKLLKVIRKKLVRKTLDMIKKIADDKYNDTFWKEFGTNIKLGVIEDHSNRTRLAKLLRFQSSHHPTDITSLDQYVERMKEKQDKIYFMAGSSRKEAESSPFVERLLKKGYEVIYLTEPVDEYCIQALPEFDGKRFQNVAKEGVKFDESEKTKESREAVEKEFEPLLNWMKDKALKDKIEKAVVSQRLTESPCALVASQYAASAAAAAIMKAQAYQTGKDISTNYYASQKKTFEINPRHPLIRDMLRRIKEDEDDKTVLDLAVVLFETATLRSGYLLPDTKAYGDRIERMLRLSLNIDPDAKVEEEPEEEPEETAEDTTEDTEQDEDEEMDVGTDEEEETAKESTAEYPYDVPDYA
B4: SEQ ID NO 65, alanine-scanning mutant of GRP94 lacking KDEL (taken as AA2) (other)
chain: DDEVDVDGTVEEDLGKSREGSRTDDEVVQREEEAIQLDGLNASQIRELREKSEKFAFQAEVNRMMKLIINSLYKNKEIFLRELISNASDALDKIRLISLTDENALSGNEELTVKIKCDKEKNLLHVTDTGVGMTREELVKNLGTIAKSGTSEFLNKMTEAQEDGQSTSELIGQFGVGFYSAFLVADKVIVTSKHNNDTQHIWESDSNEFSVIADPRGNTLGRGTTITLVLKEEASDYLELDTIKNLVKKYSQFINFPIYVWSSKTETVEEPMEEEEAAKEEKEESDDEAAVEEEEEEKKPKTKKVEKTVWDWELMNDIKPIWQRPSKEVEEDEYKAFYKSFSKESDDPMAYIHFTAEGEVTFKSILFVPTSAPRGLFDEYGSKKSDYIKLYVRRVFITDDFHDMMPKYLNFVKGVVDSDDLPLNVSRETLQQHKLLKVIRKKLVRKTLDMIKKIADDKYNDTFWKEFGTNIKLGVIEDHSNRTRLAKLLRFQSSHHPTDITSLDQYVERMKEKQDKIYFMAGSSRKEAESSPFVERLLKKGYEVIYLTEPVDEYCIQALPEFDGKRFQNVAKEGVKFDESEKTKESREAVEKEFEPLLNWMKDKALKDKIEKAVVSQRLTESPCALVASQYGWSGNMERIMKAQAYATGKAISTNAAASQKKTFEINPRHPLIRDMLRRIKEDEDDKTVLDLAVVLFETATLRSGYLLPDTKAYGDRIERMLRLSLNIDPDAKVEEEPEEEPEETAEDTTEDTEQDEDEEMDVGTDEEEETAKESTAEYPYDVPDYA

Assays:
[1] = molecular target: T1, Recombinant PCSK9-His6 of the Circulex in vitro competitive binding assay (human, UniProt Q8NBP7 31-692, limits assumed); assay: solid phase PCSK9-LDLR EGF-AB in vitro competitive binding assay (Circulex CY-8150), 100 ng (13.46 nM) PCSK9-His6 with increasing SEQ ID NO. 6
T1 construct: also called WT PCSK9; wild-type human recombinant His-tagged PCSK9; not shown: His tag
Method: Solid phase PCSK9-LDLR epidermal growth factor precursor homology domain A and B (LDLR EGF-AB) in vitro competitive binding assay (Circulex; Cat. #CY-8150) was performed with 100 ng (13.46 nM) of recombinant PCSK9-His6 together with increasing amount of recombinant SEQ ID NO. 6 according to manufacturer's recommendations. Using this in vitro competitive assay, SEQ ID NO.

[2] = molecular target: T2, Full-length human V5-tagged PCSK9 (human, UniProt Q8NBP7 31-692, limits assumed); assay: co-IP from transfected HEK293 cells, immunoblot
T2 construct: Expressed from pIRES2-EGFP in transfected cells. proPCSK9 and mature forms were both seen in the IPs; also called PCSK9-V5; wild-type PCSK9-V5
Method: All other Co-IP experiments were performed as described without the cross-linking step and in SDS-deprived RIPA buffer. HA-tagged proteins and GRP94 were immunoprecipitated with mouse anti-HA-tag (1:500; Cat. #H3663, Sigma-Aldrich) or rat anti-Grp94 (9G10, 1:1000; Cat. #ADI-SPA-850, Enzo Life Sciences).
We next decided to map GRP94 domain(s) important for PCSK9 protein-protein interaction. The overall domain structure of GRP94 includes a signal polypeptide (amino acids; aa1-21) followed by a N-terminal enzymatic ATP-binding domain (aa22-651), client-binding domain (CBD; aa652-678), C-terminal dimerization domain (aa679-799) and a KDEL polypeptide sequence (aa800-803) allowing retention of GRP94 in the endoplasmic reticulum. (Dollins et al., 2007; Maki et al., 1990; Wu et al., 2012) Thus, we first generated cDNA constructs encoding secretable HA-tagged forms of human GRP94 lacking its C-terminal KDEL polypeptide (SEQ ID. NO. 66; FIG. 2). HEK293 cells were transfected without or with SEQ ID. NO. 66 in absence or presence of PCSK9-V5 (FIG. 2a). […] NO. 66 is well expressed (Input; IB: HA) and secreted into media and that SEQ ID. NO. 66 interacts in complex with PCSK9 following immunoprecipitation (IP: V5; FIG. 2b). […] It was reported that a 27 aa C-terminal hydrophobic loop structure within GRP94 client-binding domain (CBD, amino acids aa652-678; ⁶⁵²[…], SEQ ID. NO. 4) was important for folding and interaction with Toll-like receptors and integrins. (Wu et al., 2012) Deletion or alanine-scan mutations in SEQ ID. NO. […] (Wu et al., 2012) Similarly, we generated two mutated constructs in which critical residues within the GRP94-CBD domain where mutated into alanine (AA1: ⁶⁵²[…], SEQ ID. NO. 78 and AA2: ⁶⁵²[…], SEQ ID. NO. 79). HEK293 cells were transfected with either an empty vector (−) or with SEQ ID. NO. 66, 64 or 65 constructs in presence or absence of PCSK9-V5 (FIG. 2b).

T2 sequence (Q8NBP7 31-692 limits assumed): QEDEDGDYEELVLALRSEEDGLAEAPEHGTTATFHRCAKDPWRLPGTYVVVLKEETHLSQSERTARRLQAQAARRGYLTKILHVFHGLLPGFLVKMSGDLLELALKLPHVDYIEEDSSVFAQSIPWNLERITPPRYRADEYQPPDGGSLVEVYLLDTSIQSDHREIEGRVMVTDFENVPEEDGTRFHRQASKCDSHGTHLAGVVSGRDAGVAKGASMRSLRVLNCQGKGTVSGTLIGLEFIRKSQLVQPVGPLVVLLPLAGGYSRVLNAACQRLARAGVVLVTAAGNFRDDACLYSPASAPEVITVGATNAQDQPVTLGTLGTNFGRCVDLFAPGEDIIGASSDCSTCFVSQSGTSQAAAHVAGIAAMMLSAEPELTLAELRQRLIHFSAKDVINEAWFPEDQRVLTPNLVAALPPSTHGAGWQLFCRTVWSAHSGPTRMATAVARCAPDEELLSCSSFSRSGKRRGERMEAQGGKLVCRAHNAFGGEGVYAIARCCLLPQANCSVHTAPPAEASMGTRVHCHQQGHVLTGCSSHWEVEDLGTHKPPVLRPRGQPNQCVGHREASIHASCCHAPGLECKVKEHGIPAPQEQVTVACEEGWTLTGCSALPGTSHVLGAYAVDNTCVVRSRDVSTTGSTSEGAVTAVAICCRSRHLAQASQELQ
T1 sequence (Q8NBP7 31-692 limits assumed): as above

Binder	IC50 [1] [nM]	binding result [2]
B1	~113	
B2		binds
B3		no binding
B4		no binding
